{"source": "paper PMC8497506", "about": "“Modular fluorescent nanoparticle DNA probes for detection of peptides and proteins”", "binders": {"B1": {"name": "Biotin-H3T (ssDNA)", "DNA": "GTTTGCCGGTGGGCAGGTTTAGGGTCTGCTCGGGATTGCGGAGGAACATGCGTCGCAAAC", "modifications": "5' biotin"}, "B2": {"name": "Biotin-B1 (ssDNA)", "DNA": "CATGCTTCCCCAGGGAGATGGTTTGCCGGTGGGCAGGTTTAGGGTCTGCTCGGGATTGCGGAGGAACATGCGTCGCAAAC", "modifications": "5' biotin"}, "B3": {"name": "VEGF aptamer annealed to DBCO-P7 handle on nanoparticle (mixed)", "DNA 1": "CAAGCAGAAGACGGCATACGAGATCCCGTCTTCCAGACAAGAGTGCAGGGGTGTAGATCTCGGTGGTCGCCGTATCATT", "DNA 2": "ATCTCGTATGCCGTCTTCTGCTTG", "modifications": "handle 3' iSp9-DBCO coupled to azide-PEG"}, "B4": {"name": "H3T annealed to DBCO-P7 handle on nanoparticle (mixed)", "DNA 1": "CAAGCAGAAGACGGCATACGAGATGTTTGCCGGTGGGCAGGTTTAGGGTCTGCTCGGGATTGCGGAGGAACATGCGTCGCAAACGTGTAGATCTCGGTGGTCGCCGTATCATT", "DNA 2": "ATCTCGTATGCCGTCTTCTGCTTG", "modifications": "handle 3' iSp9-DBCO coupled to azide-PEG"}, "B5": {"name": "Her2 aptamer annealed to DBCO-P7 handle on nanoparticle (mixed)", "DNA 1": "CAAGCAGAAGACGGCATACGAGATTCTAAAAGGATTCTTCCCAAGGGGATCCAATTCAAACAGCGTGTAGATCTCGGTGGTCGCCGTATCATT", "DNA 2": "ATCTCGTATGCCGTCTTCTGCTTG", "modifications": "handle 3' iSp9-DBCO coupled to azide-PEG"}, "B6": {"name": "P7-B1 annealed to DBCO-P7 handle on nanoparticle (mixed)", "DNA 1": "CAAGCAGAAGACGGCATACGAGATCATGCTTCCCCAGGGAGATGGTTTGCCGGTGGGCAGGTTTAGGGTCTGCTCGGGATTGCGGAGGAACATGCGTCGCAAACGTGTAGATCTCGGTGGTCGCCGTATCATT", "DNA 2": "ATCTCGTATGCCGTCTTCTGCTTG", "modifications": "handle 3' iSp9-DBCO coupled to azide-PEG"}, "B7": {"name": "DBCO-B1 directly conjugated to nanoparticle (ssDNA)", "DNA": "CAAGCAGAAGACGGCATACGAGATCATGCTTCCCCAGGGAGATGGTTTGCCGGTGGGCAGGTTTAGGGTCTGCTCGGGATTGCGGAGGAACATGCGTCGCAAACGTGTAGATCTCGGTGGTCGCCGTATCATT", "modifications": "5' DBCO-C7 coupled to azide-PEG"}, "B8": {"name": "P7-B1 annealed to DBCO-P7 handle on Qdot 655 (mixed)", "DNA 1": "CAAGCAGAAGACGGCATACGAGATCATGCTTCCCCAGGGAGATGGTTTGCCGGTGGGCAGGTTTAGGGTCTGCTCGGGATTGCGGAGGAACATGCGTCGCAAACGTGTAGATCTCGGTGGTCGCCGTATCATT", "DNA 2": "ATCTCGTATGCCGTCTTCTGCTTG", "modifications": "handle 3' iSp9-DBCO coupled to azide-PEG"}}, "key": {"[1]": {"target": "T1, HHH peptide (synthetic)", "T1 chain": "GHHHG", "assay": "plate binding assay (ELONA); EC50, streptavidin conjugate; 10 mM HEPES, 1.2 mM NaCl (so in the source), 5 mM MgCl2, 5 mM KCl, pH 7.4, 0.1% Tween-20, 1% sheared salmon sperm DNA, 300 uM dextran sulfate; 60 min; temperature not stated", "conditions": "tags: N-terminal Cys-biotin-PEG2; label: streptavidin conjugate"}, "[2]": {"target": "T1, HHH peptide", "assay": "plate binding assay (ELONA); EC50, Streptavidin SureLight APC; 10 mM HEPES, 1.2 mM NaCl (so in the source), 5 mM MgCl2, 5 mM KCl, pH 7.4, 0.1% Tween-20, 1% sheared salmon sperm DNA, 300 uM dextran sulfate; 60 min; temperature not stated", "conditions": "tags: N-terminal Cys-biotin-PEG2; label: streptavidin conjugates or HRP"}, "[3]": {"target": "T1, HHH peptide", "assay": "plate binding assay (ELONA); streptavidin conjugate; Fig. S4B legend calls it EC50; 10 mM HEPES, 1.2 mM NaCl (so in the source), 5 mM MgCl2, 5 mM KCl, pH 7.4, 0.1% Tween-20, 1% sheared salmon sperm DNA, 300 uM dextran sulfate; 60 min; temperature not stated", "conditions": "tags: N-terminal Cys-biotin-PEG2; label: streptavidin conjugates or HRP"}, "[4]": {"target": "T1, HHH peptide", "assay": "plate binding assay (ELONA); EC50, Streptavidin AlexaFluor 647; 10 mM HEPES, 1.2 mM NaCl (so in the source), 5 mM MgCl2, 5 mM KCl, pH 7.4, 0.1% Tween-20, 1% sheared salmon sperm DNA, 300 uM dextran sulfate; 60 min; temperature not stated", "conditions": "tags: N-terminal Cys-biotin-PEG2; label: streptavidin conjugates or HRP"}, "[5]": {"target": "T1, HHH peptide", "assay": "plate binding assay (ELONA); EC50, Streptavidin APC; 10 mM HEPES, 1.2 mM NaCl (so in the source), 5 mM MgCl2, 5 mM KCl, pH 7.4, 0.1% Tween-20, 1% sheared salmon sperm DNA, 300 uM dextran sulfate; 60 min; temperature not stated", "conditions": "tags: N-terminal Cys-biotin-PEG2; label: streptavidin conjugates or HRP"}, "[6]": {"target": "VEGF (UniProt P15692-4 27-191)", "assay": "plate binding assay (ELONA); EC50, FluoSphere probe; 10 mM HEPES, 1.2 mM NaCl (so in the source), 5 mM MgCl2, 5 mM KCl, pH 7.4, 0.1% Tween-20, 1% sheared salmon sperm DNA, 300 uM dextran sulfate; 60 min; temperature not stated", "conditions": "protein: commercial; chain copies: 2; label: fluorescent FluoSphere; 24 bp duplex of strand 1 5' end with handle; rest single-stranded aptamer"}, "[7]": {"target": "Myoglobin (UniProt P68082 2-154)", "assay": "plate binding assay (ELONA); off-target; 10 mM HEPES, 1.2 mM NaCl (so in the source), 5 mM MgCl2, 5 mM KCl, pH 7.4, 0.1% Tween-20, 1% sheared salmon sperm DNA, 300 uM dextran sulfate; 60 min; temperature not stated", "conditions": "protein: commercial; label: fluorescent FluoSphere; 24 bp duplex of strand 1 5' end with handle; rest single-stranded aptamer"}, "[8]": {"target": "T1, HHH peptide", "assay": "plate binding assay (ELONA); EC50, FluoSphere probe; 10 mM HEPES, 1.2 mM NaCl (so in the source), 5 mM MgCl2, 5 mM KCl, pH 7.4, 0.1% Tween-20, 1% sheared salmon sperm DNA, 300 uM dextran sulfate; 60 min; temperature not stated", "conditions": "tags: N-terminal Cys-biotin-PEG2; label: fluorescent FluoSphere; 24 bp duplex of strand 1 5' end with handle; rest single-stranded aptamer"}, "[9]": {"target": "T1, HHH peptide", "assay": "plate binding assay (ELONA); 10 mM HEPES, 1.2 mM NaCl (so in the source), 5 mM MgCl2, 5 mM KCl, pH 7.4, 0.1% Tween-20, 1% sheared salmon sperm DNA, 300 uM dextran sulfate; 60 min; temperature not stated", "conditions": "tags: N-terminal Cys-biotin-PEG2; label: fluorescent FluoSphere; 24 bp duplex of strand 1 5' end with handle; rest single-stranded aptamer"}, "[10]": {"target": "T2, Her2-his (UniProt P04626 23-652)", "assay": "plate binding assay (ELONA); EC50, FluoSphere probe, avidity; 10 mM HEPES, 1.2 mM NaCl (so in the source), 5 mM MgCl2, 5 mM KCl, pH 7.4, 0.1% Tween-20, 1% sheared salmon sperm DNA, 300 uM dextran sulfate; 60 min; temperature not stated", "conditions": "protein: commercial; tags: His tag; label: fluorescent FluoSphere; 24 bp duplex of strand 1 5' end with handle; rest single-stranded aptamer"}, "[11]": {"target": "T2, Her2-his", "assay": "plate binding assay (ELONA); about twofold lower than pre-annealed probe; 10 mM HEPES, 1.2 mM NaCl (so in the source), 5 mM MgCl2, 5 mM KCl, pH 7.4, 0.1% Tween-20, 1% sheared salmon sperm DNA, 300 uM dextran sulfate; 60 min; temperature not stated", "conditions": "protein: commercial; tags: His tag; label: fluorescent FluoSphere"}, "[12]": {"target": "T2, Her2-his", "assay": "plate binding assay (ELONA); EC50, Qdot core; 10 mM HEPES, 1.2 mM NaCl (so in the source), 5 mM MgCl2, 5 mM KCl, pH 7.4, 0.1% Tween-20, 1% sheared salmon sperm DNA, 300 uM dextran sulfate; 60 min; temperature not stated", "conditions": "protein: commercial; tags: His tag; label: Qdot 655; 24 bp duplex of strand 1 5' end with handle; rest single-stranded aptamer"}}}
{"binder": "B1", "values": [{"measurement": "apparent K (half saturation)", "setting": "[1]", "result": 30, "unit": "nM"}]}
{"binder": "B2", "values": [{"measurement": "apparent K (half saturation)", "setting": "[2]", "result": 9.9, "unit": "nM"}, {"measurement": "Kd", "setting": "[3]", "result": 55, "unit": "nM"}, {"measurement": "apparent K (half saturation)", "setting": "[4]", "result": 43, "unit": "nM"}, {"measurement": "apparent K (half saturation)", "setting": "[5]", "result": 28, "unit": "nM"}]}
{"binder": "B3", "values": [{"measurement": "apparent K (half saturation)", "setting": "[6]", "result": 5.5, "unit": "nM"}, {"measurement": "binding result", "setting": "[7]", "result": "no binding"}]}
{"binder": "B4", "values": [{"measurement": "apparent K (half saturation)", "setting": "[8]", "result": 12, "unit": "nM"}]}
{"binder": "B5", "values": [{"measurement": "binding result", "setting": "[9]", "result": "no binding"}]}
{"binder": "B6", "values": [{"measurement": "apparent K (half saturation)", "setting": "[10]", "result": 5.2, "unit": "nM"}, {"measurement": "apparent K (half saturation)", "setting": "[8]", "result": 2.7, "unit": "nM"}]}
{"binder": "B7", "values": [{"measurement": "binding result", "setting": "[11]", "result": "binds"}]}
{"binder": "B8", "values": [{"measurement": "apparent K (half saturation)", "setting": "[12]", "result": 55, "unit": "nM"}]}
